The target in this experiment is Dnmt3a (ADD domain, ADD3a) ADD domain, 479-610 or 476-611 (UniProt Q9Y6K1). The experiment can be described thus: biotin-peptide pull-down, Coomassie. The conditions noted are these: reference: unmodified H3 peptide; sites S10.

As to “histone H3 (N-terminal peptides) (from UniProt P68431) H3S10ph peptide”, the “binding against the reference” value is listed as “same”.

These data come from paper PMC4491196.
